The values below come from a protein production outcome set (Wang et al. 2014).
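Further: failed if final PepcDB status was selected cloned or expressed and not failed if soluble or beyond.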

This data set in a line: label from the status in PepcDB records.
In the case of “MNLKAMDAILEDCCDIVCSDYLPSAMIKSMCIVAERINNLNKAVSLFTSNPAKAVGIYDERGSIKENKKADLVLVDIDSEYPKVVNTIVNGKTVYKRELEHHHHHH”, the protein production result was “failed”.
With “MNLLLIVVFGAILEIAVWIGIAQFISGWYVFFWFIIAFFIGLSMLRSSTSSIMPQLQQMQMSGQMGNDPAVTKKLAVAMAGFLLMLPGVVSDILALLILIPGVQTLFRNALMKTLAKRQQAMMNKMMGGMMGGDVGGNAGQNPFEDLMRQMQNMQNQQGASPYNDSNVIDGEAREVKPDQKQIEHKDK” the entry was “failed”.
With “MNLLYMVLIGQIILFLIGAMYAIGQTKKTRNNMPLPLAVRLILSFSLTASAIWIWLQDPSVDYSTWVALGMTLSTVGDLFMAGLIPIGHRLIGGMITFALAHCFYVKAFLQTGISWNGFWIGLLVYGLFLIIGWFFFIRNEKQDKLFTIGALIYGLWVGGMACFAFALYYENTGIWWIPAFGGLLFVISDFIIGVTDIGGRKLKYEPLWIWFTYVAAQMCIVYVGI” the entry was “failed”; with “MNLPKVKMLQVSKCLIGLAVMMLQSCDVADNRRDMLCGNWESVEGKPDVLIYKEGEAYKVTVFRRSGLRRKLKPETYLLQEENGNLFMNTGFRIDVSYNEATDVLTFSPNGDYVRVKPQPGHPTEE”, “failed”; with “MNLRGILPFAHDTLRKVVRSGDYVVDATCGNGHDTLLLAELVGINGHVLGFDIQQLAIDATNTRLENAGVSSQVELVCASHARIPEYTSKPVRAAIFNLGYLPGGDKEITTTADSTLESIGHLMELLEVGGVIILVIYHGHPAGKQEKDAVMTFCEAIPQQDFHVLSYNFINQKNDAPFVIIIEKRKPRQSLEHHHHHH”, “not failed”.
As for “MNLSFKIFDISNTQRSKAKKVQGKKYEIFLNENEHSLITPKVSFKEILRYYYLYPKNAIPSFKLPFFKPDLSGFSTPHITWLGHSSLFISFKEYKILIDPIFNTHASPISFINKAFKNAPVYNINDFNEIFAVIITHSHFDHLDAKSVKALKDKAKFFITPLKVGNYLKSYGVSEKKIIELDWWSGIEFGDLKIMATPAQHSSSRGDGKNKTLWASFVMEFLSVDKRVFFSADGGYFTHFKKIGEYFGSFDLACLESGQFNIAWPYSHSFPEQILKEAKDLNAKAVMPIHWGRFLAGTHAWNEVVKFLYENLDLPLITPKMGEAYEVGAKFKQDFWWKEELEHHHHHH”, the entry is “failed”; as for “MNLTELMERIPHLREILNIVREAFKDYDDPAHDISHTFRVMENASEIASREKCDLQKAIIAALLHDIKRPHEALTGVDHAESGAEYASGLLPTMGFDISFVAEVSKAIRSHRYSGGLTPTSLTGKILQDADRLDAIGAVAIARVFSYSGKTGTPLHSLQFSPRSSYSGNSRSSINHFHEKILKIRPETFWTETARKMAEDRYSFVVEFVQRFLAEWGQI”, “not failed”.
For “MNMIDQLNITDFQVFTDENSDKSVSKIYKFSSKMILSDFHAQPHGFLNGGASLALAEITAGMASNAIGSSQYFALGQSISANHLNSKKCEGFVNACGLLLKNGKRNHVWEIKITDENETLISQITVVNALVPQKNSDKLEHHHHHH”, the protein production result is on record as “failed”.
With “MNMLALTILLPLIGFVLLAFSRGRWSENLSATVGMGSVGLAALVTAYVGVDFFANGKQAVSVPLWTWMSVGDFNIGFNLVLDGLSLTMLSVVTGVGFLIHMFASWYMRGEEGYSRFFAYTNLFIASMVVLVLADNLLLMYLGWEGVGLCSYLLIGFYYTDPKNGAAAMKAFVVTRVGDVFLAFALFILYNELGTLNFREMVELAPQHFANGSTTLQWATLMLLGGAVGKSAQLPLQTWLADAMAGPTPVSALIHAATMVTAGVYLIARTHGLFLMTPEVLHLVGIVGAVTLVLAGFAALVQTDIKRVLAYSTMSQIGYMFLALGVQAWDAAIFHLMTHAFFKALLFLSSGSVILACHHEQNIFKMGGLRKSIPLVYVCFLVGGAALSALPLITAGFFSKDEILAGAMANGHINLMVAGLVGAFMTSLYTFRMIFIVFHGKEQIHAHAGKGITHHLPLIVLLVLSTFVGALIVPPLEGVLPQTTELAHGSVMTLEIASGIIAIAGILIAAWLWLGKRTLVTSIANSAPGRFFGTWWFHAWGFDWLYDKVFVKPFLGIAWLLKRDPLNSLMNIPAILSRFAGKGLLVSENGYLRWYVASMSIGAVVVLALLMVLR” the entry was “failed”; with “MNMSTDRIERRIVLHAPRSRVWRALTNADEFGAWFRVDLAGQAFEAGRRVEGRITYPGYEHLVLQMRIERIEPEHHFSYRWHPAAVDPAVDYSQEAPTLVVFELADAEGGPLLTVVESGFDALPVERRADAFRMNSGGWDEQMTNIAAHVDAR”, “failed”; with “MNMTAGRRAALTREQASSETMTMESSAYGEAVRAVRTGEISADEAANQLIDRMTEGEVLGLLDGDSSRWVLPFIPALLDRRPFVAGAVSRLGIPGIRFSDGGRGVVIGASTAFPVTIARAATWDPSLEERVGIAIGLETRARGANYSASVCVNLLRHPAWGRAQECYGEDPVLTGRMGSALTRGVRLHVMACVKHFALNSMENERFEVDVAVDEHALHEVYLPHFKAVVDAGADSVMSSYNRVRGEYMDVNRALLTDVLRREWGFSGFVTSDWVFGTHDAVASLEAGMDVEMPLRLLRARELPAALRNGVLARATVLQSARRVLRTCVEHSANRELAAPTRAVIASPAHRALAHQVAAESIVMLKNETVGAAPLLPLAPTIQHLAVIGRLAAQGNLGDHGSSRVRPPSTVSPLQGLREALPGVLISTTTGRDERRAAAMAAAAEMAIVVVGLDQHDEGESVVTGGVDVGVIGRTFGSGPLRQVLIGLAHLASRFVRGGDRSSLNLRPSDERLIQAVVAANPRTVVVLVSGSAILTEAWRDRVPALLLAWYGGMEGGRALASVLTGSEEPGGRLPFVLPTDAAHLPFFDSAAKSVVYDAQWGQRRLDGEGHRPAYPFGFGLSYTTLEHRLIDHTLDSSGGNANVHVTNKGHRKGSTVVQVYAADVSLRRPVAQLLGFRKVTLQPGAETTVRVVLDAGPTLQRDSTTRRWSPRSGVWALQASQHSPDSWENAVRLRRTEGLIDQEGTSDVKPA”, “failed”.
Take “MNNDISIAALIVTYNPDKRLIESLTKLEKLVDFVVIVDNNSNKSPVLDYISNNIFNDRYLIQLEDNLGIAYALNTGIKYILEKGHYDYILTLDQDTVPLIDDIKELIKRANSIYSNIGIIALISKMDPKIPEFTDVKFPMTSGNIVKSEIFKYIKYREEFFIDSVDFDFDYNVRMHGYRIIQYNYRAIDHNVGITKNGFPYESSERLYYIIRNSTVLFGENKITFRMYIFQAFYWITMGLIHWEILKTAKSSVKGFKDGVNKKLGKNNDI”: the protein production result is “failed”.
As to “MNNENPLVSILIPVYNREKYIGEAIESAINQTYKNIEVIIVDNCSTDNTWKILQDYQCKDKRIHIFQNEKNLGPVYNWIECFKRAKGVYSKILWSDDWMSLDFVENALSAFNEDISFVISAQQIITNDKEILSNVAYLKDRYSQREYLENALLYNKYNFPLSPGCAIFRTKDVLNNFIVDIPNSDSLDSKKNGAGNDLYLFLKIALHYPYIGVVANSVSYFRAHKESFSVASDLNLYYEWAKVDFINSELRDSYFISAKKMLLFKFSVKNKHFRNICKSLSYNKYILQAVFRLLLIRILEHHHHHH”, the protein production result is “failed”.
With “MNNFKLIVRKWYIPVLIISLITLVASAYALYWATIPETKETQISIRHYSALAYFSGGAEVKKDNPIWANGSFVTLPVYSYSLTPEYSGEFYFTTAPRGDITIETEAKIVYFYEVSDAPVWEKVYYAASNTSRGEIKTNFKINVTDLKSKINEAQNSFGVYLGKTGARIDVSVHYYGKITGKDVDETLSFKIPIDVQSTYYSFSTLNETRDFEMPSTRVVEVQKPLHMKVIPAALCTVSIIFAGLSVVYRTKYSDVSSLEREIERVSWEKKLKEVSFARMPETNLEMVEVERFEDISKAAEETFEHLFYDREKGVFFFIHGGVLYYCREK” the entry was “failed”.
Turning to “MNNFVSELQSYFASKYPFLSANIPRQQQLLGDSWSQEFDGELIKHFGTIEELRTAADGYAKFAMDSLLLTAKFQKTKDYDNKTYAECASEVYQSESYMHSLYLPGILLSHYLWKHHYAMYQFYKSIVVPVLPKSGLFIDVGVGTGFYSRNLLRDSQMTGIGCDMSPHSLSYTRSTLSKFGTVDKYSFCLCDYYHFNQYFQSTADFILSIEVLEHLEDPMKMLESLYKSLKPGGLGLISAAVNAPNADHIYLYRSCEDVRHQLIKAGFEIRHDTCDEAYEARTIGEVVPVNYGALVCKPS”, the protein production result is listed as “failed”.
As for “MNNGQPLKHRGVTVEDLLRLRSVRDPHYASDGTHGVFVQKSIDEEKQYCSHLYIWTEDGAVRQWTFGRWRDTRPRFSPDSKTIAFLSDRSGHTQLWLLPADGGEARQLTFFKNGVRDYVWAPDGTFLIALTTLGDNETIDDREEPKKKETKPADLKPRVVERLYYKSDASGFLDGKQAVLVCIDATSGKTEALTSREEEISSFAISPNGRTLAFMANRNEDPDTTFTRDIVLLDLESKAETNLTKGSGTFTSLAWSPDGTKLAAIGHDLAFLGATIHQLYVFEPERGTKRVLTADWDVHLGDAMVGDTHADAKGPGPIWKRDGTGLYVTASERGRVNVYFVPLDGPIVPIIEGDFHVYGLAIHPNEQQAVAAISEPTMIGDLYTISLESGTKTRLTRVNEALENEVTFADAEPFTYQSTDGWDIQGWIMKPPRLGDGEKAPLVVEIHGGPHTMYGFTFFHEFQLLASSGYVVLFTNPRGSHGYGQSFVNAVRGDYGGMDYEDIMAGVDAAIKQFAFIDETRLGVTGGSYGGFMTNWIVGHTNRFRAAVTQRSISNWLSFAGVSDIGYFFTKWEVGCDVWEDAERLWHHSPLKYVKNVRTPLLILHSEHDYRCPIEQAEQLFIALKQLGQETKLVRFPDANHDLSRTGNPALRLERLRQIVGWFDHYLKGPLD”, the entry is “failed”; as for “MNNLKKYTLVAVFVFLTAVCFQHPGITSAATTITIDPDATYQTIEGWGASICWWGNQIGRWSPDNRNRLIEKIVSPTDGLGYNIFRYNIGGGDNPGHNHMRDYADIQGYQNADRSWNWNADAAQRAVLTRLIERGRYYGSEIILEAFSNSPPYWMTKSGCASGTSDGSNNLRDDCYDDFADYLTEVVKHFRDAWGITFRTLEPMNEPNSDWWKAGGRQEGCSFSYANQQRIIKEVGEKLKAKGLTGTTVSAADEASIDTALEGLQSYDATTLSYMSQLNVHSYFGSKRAQLRDLAKSKGLRIWQSESGPLSFNGDMADSCIMLSKRIVTDLKELQCVAWLDWQIIDGGNWGSIYVDDASQTFTLTEKFYMHANYSRFIRPGYTIIGANNEKTIAAISPDKKKLVIVATNDNKSSSANYTFNLTRFSGVNSTVEVYRTSPSLSLAKSIITASNKIVSDTLPPYSINTYVITLDGGVESVPAVGLQSYNYPNRYVRHADFDARIDENVTPLEDSQWRLVPGLANSSEGYVSIQSVNYPGYYLRHWDYDFRLDKNDGTTIFAEDATFKLVPGLADPSCVSFQSYNYPDRYIRHYGYLLKLERISTDLDRQDATFLIISDDSPGPITDSGYIMAYFKQAPGEYGLNLCYSTDGLHWRNINDGKPVLYAQMGTKGIRDPYIFRKQDGKFGIVATDMLGTNWGDTSQYIHYWESEDLINFTERLIKVHNKSNMHAWAPEVFYDENRKQYGIYWAGNTDYNRIYVNYTTDFDTVSDCQVFFDPGYDVIDAHIVSDKGMYYLFFKDERASGKAIKVARSSSLTPNSFTVFTPNFITSPNTEGPFVFKDNNSDSWYMYVDIYSNNGIFECWKTNDLNALSWTKVTGISVPPGVRHGSVVKVNRWELETAISRKVVTPPAPTPPPVLKGDVNADGVINSSDIMVLKRFLLRTITLTEEMLLNADTNGDGAVNSSDFTLLKRYILRSIDSFPV”, “failed”.
With “MNNPKPCEWKSNELSRGYIADYKAFNFVDGEGVRCSLYVSGCPFHCEGCYNKAAQSFKYGKPYTKELEDDILKDIGHESVQGLTLLGGEPFLNTATCLSVVKRIRATYGKTKDIWSWTGYTWDEMMQETTDKLELLSLIDVLVDGRFEQKLFDPNLAFRGSSNQRIIDVQKSLAADEVVLYELLEHHHHHH” the entry was “not failed”.
